# Like-named read-outs stand apart in the source and are kept apart here.
# Columns and labels:
# [1] = target: 319C07 (Potravitug), human IgG monoclonal antibody (human); experiment: BLI
# [2] = target: BKPyV VP1 pentameric core (residues 26-297) (BK polyomavirus (BKPyV)) (UniProt P03088); experiment: crystal structure
# [3] = target: BKPyV VP1 pentamer, genotype III-AS (M23122), ALFA-tagged (BK polyomavirus (BKPyV), strain AS, UniProt P14996); experiment: BLI
# [4] = target: T1, BKPyV VP1 pentameric core (residues 26-297) (BK polyomavirus, strain ; …, UniProt P03088); experiment: crystal structure
# [5] = target: T1, BKPyV VP1 pentameric core (residues …); experiment: crystal structure; remark: listed apart in the source
# [6] = target: T1, BKPyV VP1 pentameric core (residues …); experiment: crystal structure; remark: listed apart in the source
molecule,measurement,setting,value
BKPyV VP1 single-point mutant K69N in the Dunlop background (from UniProt P03088 1-362) (natural protein),Kd,[1],4.5 µM
same,fold reduction of affinity against the Dunlop background,[1],> 1000 fold
BKPyV VP1 pentameric core (residues 26-297) (from UniProt P03088 26-297) (domain or fragment),stoichiometry N,[2],5
"319C07 (Potravitug), human IgG monoclonal antibody (antibody, V domains shown) VH: QVQLQQWGAGLLKPSETLSLTCAVYRGSFSAYYWTWFRQPPGKGLEWIGEINHRGYTNYNPSLRGRVSISVDTSKKQFSLKLRSVNAADTAVYYCATLRSTSGWHDYFDYWGQGTLVTVSS VL: EIVLTQSPGTLSLSPGERATLSCRASQSVSSSYLAWYQQTPGQAPRLLIYGASSRATGIPDRFSGSGSGTDFTLTISRLEPEDFVVYFCLQYGSSPLTFGPGTKVDIK",binding result,[3],binds
"Potravitug single-chain variable fragment (scFv-319C07) (scFv, V domains shown) VH: QVQLQQWGAGLLKPSETLSLTCAVYRGSFSAYYWTWFRQPPGKGLEWIGEINHRGYTNYNPSLRGRVSISVDTSKKQFSLKLRSVNAADTAVYYCATLRSTSGWHDYFDYWGQGTLVTVSS VL: EIVLTQSPGTLSLSPGERATLSCRASQSVSSSYLAWYQQTPGQAPRLLIYGASSRATGIPDRFSGSGSGTDFTLTISRLEPEDFVVYFCLQYGSSPLTFGPGTKVDIK",stoichiometry N,[4],3 scFv per VP1 pentamer
ORT-VHH17 (VHH) VHH: EVQLVESGGGLVQAGGSLRLSCAASGRDLSNYDMGWFRQAPGKEREFVATIKWRSGGTNHAESVKGRFTISRDNAKNTVYLQMSSLKPEDTAVYYCAAAPNWLGYSFKVDDYIYWGQGTQVTVSS,stoichiometry N,[5],1 nanobody per VP1 monomer
ORT-VHH16 (VHH) VHH: EVQLVESGGGLVQAGGSLRLSCAASGRTFDHYAMGWFRQAPGKERELVARISSGGGTTNYADSVKGRFTISRDNAKNTVSLQMNSLKPEDTAVYYCVGEIQYGTRYYWGQGTQVTVSS,stoichiometry N,[6],1 nanobody per VP1 monomer
